# Experimental data: the Human Domainome abundance scans (Beltran et al. 2025)
# ± gives the uncertainty stated by the source.
# B1: Cold shock protein CspB, residues 1 to 66; numbered along this chain, P41016 (parent)
# chain: MQRGKVKWFNNEKGYGFIEVEGGSDVFVHFTAIQGEGFKTLEEGQEVSFEIVQGNRGPQAANVVKL
# Variants of: B1
# Test: abundance fitness (aPCA) (normalised: wild type 0, dead -1); higher = more abundant; growth selection in yeast, the domain comes from the species named
# Details: Bacillus caldolyticus
row,Variant,abundance fitness
1,N55D,-0.309 ± 0.28
2,N55E,-0.043 ± 0.31
3,N55F,0.046 ± 0.43
4,N55G,-0.064 ± 0.12
5,N55I,0.059 ± 0.13
6,N55K,0.018 ± 0.15
7,N55L,-0.035 ± 0.11
8,N55P,-0.026 ± 0.15
9,N55Q,-0.042 ± 0.18
10,N55R,-0.075 ± 0.094
11,N55S,0.049 ± 0.092
12,N55T,-0.256 ± 0.18
13,N55V,0.005 ± 0.099
14,N55W,0.002 ± 0.22
15,R56A,-0.069 ± 0.049
16,R56C,-0.097 ± 0.057
17,R56D,-0.175 ± 0.079
18,R56E,-0.066 ± 0.053
19,R56F,-0.181 ± 0.05
20,R56G,-0.081 ± 0.039
21,R56H,-0.069 ± 0.059
22,R56I,-0.143 ± 0.093
23,R56K,0.003 ± 0.057
24,R56M,-0.068 ± 0.064

row,Variant,abundance fitness
1,R56N,0.018 ± 0.1
2,R56P,-0.062 ± 0.048
3,R56Q,-0.044 ± 0.062
4,R56S,-0.088 ± 0.038
5,R56T,-0.142 ± 0.055
6,R56V,-0.1 ± 0.04
7,R56W,-0.207 ± 0.045
8,R56Y,-0.131 ± 0.065
9,G57A,-0.145 ± 0.042
10,G57C,-0.163 ± 0.055
11,G57D,-0.249 ± 0.051
12,G57E,-0.213 ± 0.045
13,G57F,-0.237 ± 0.052
14,G57H,-0.195 ± 0.061
15,G57I,-0.231 ± 0.045
16,G57K,-0.081 ± 0.054
17,G57L,-0.158 ± 0.034
18,G57N,-0.223 ± 0.066
19,G57P,-0.278 ± 0.042
20,G57Q,-0.116 ± 0.048
21,G57R,-0.089 ± 0.036
22,G57S,-0.093 ± 0.036
23,G57T,-0.089 ± 0.049
24,G57V,-0.238 ± 0.029

row,Variant,abundance fitness
1,G57W,-0.256 ± 0.049
2,G57Y,-0.127 ± 0.058
3,P58A,0 ± 0.047
4,P58C,-0.083 ± 0.059
5,P58D,-0.037 ± 0.059
6,P58E,-0.017 ± 0.058
7,P58F,-0.046 ± 0.055
8,P58G,-0.082 ± 0.039
9,P58H,-0.142 ± 0.12
10,P58I,-0.055 ± 0.072
11,P58K,-0.036 ± 0.052
12,P58L,-0.018 ± 0.028
13,P58M,0.006 ± 0.041
14,P58Q,-0.015 ± 0.052
15,P58R,-0.029 ± 0.044
16,P58S,-0.026 ± 0.038
17,P58V,-0.021 ± 0.035
18,P58W,-0.016 ± 0.047
19,P58Y,-0.066 ± 0.073
20,Q59A,-0.003 ± 0.031
21,Q59C,-0.05 ± 0.061
22,Q59D,-0.429 ± 0.072
23,Q59E,-0.103 ± 0.041
24,Q59F,0.061 ± 0.056

row,Variant,abundance fitness
1,Q59G,-0.192 ± 0.035
2,Q59H,-0.02 ± 0.068
3,Q59I,-0.08 ± 0.063
4,Q59K,0.059 ± 0.055
5,Q59L,0.016 ± 0.025
6,Q59M,-0.011 ± 0.044
7,Q59N,-0.082 ± 0.092
8,Q59P,-0.733 ± 0.081
9,Q59R,0.092 ± 0.033
10,Q59S,-0.01 ± 0.028
11,Q59T,-0.035 ± 0.042
12,Q59V,-0.029 ± 0.039
13,Q59W,-0.029 ± 0.036
14,Q59Y,-0.012 ± 0.065
15,A60C,-0.115 ± 0.085
16,A60E,-0.812 ± 0.073
17,A60F,-0.79 ± 0.078
18,A60G,-0.171 ± 0.037
19,A60H,-0.771 ± 0.099
20,A60L,-0.636 ± 0.033
21,A60M,-0.752 ± 0.062
22,A60N,-1.08 ± 0.21
23,A60Q,-0.717 ± 0.064
24,A60S,-0.14 ± 0.034

row,Variant,abundance fitness
1,A60T,-0.487 ± 0.043
2,A60V,-0.254 ± 0.031
3,A60W,-1 ± 0.14
4,A61C,-0.03 ± 0.047
5,A61D,-0.024 ± 0.073
6,A61E,-0.051 ± 0.048
7,A61F,-0.06 ± 0.047
8,A61H,-0.004 ± 0.072
9,A61I,0.01 ± 0.079
10,A61K,0.02 ± 0.046
11,A61L,-0.067 ± 0.044
12,A61M,0.022 ± 0.21
13,A61N,-0.061 ± 0.063
14,A61P,-0.828 ± 0.062
15,A61Q,0.012 ± 0.047
16,A61R,0.015 ± 0.035
17,A61S,0.008 ± 0.04
18,A61T,-0.072 ± 0.039
19,A61V,-0.06 ± 0.06
20,A61W,-0.003 ± 0.058
21,A61Y,0.015 ± 0.076
22,N62D,0.189 ± 0.42
23,N62I,-0.299 ± 0.39
24,N62Q,0.152 ± 0.43

row,Variant,abundance fitness
1,V63A,-0.205 ± 0.044
2,V63C,0.009 ± 0.083
3,V63E,-0.782 ± 0.077
4,V63F,-1.01 ± 0.085
5,V63G,-0.873 ± 0.062
6,V63H,-0.771 ± 0.1
7,V63I,-0.126 ± 0.054
8,V63K,-0.721 ± 0.071
9,V63L,-0.018 ± 0.03
10,V63M,-0.283 ± 0.05
11,V63N,-0.528 ± 0.073
12,V63P,-0.643 ± 0.052
13,V63Q,-1.13 ± 0.18
14,V63R,-0.71 ± 0.042
15,V63T,-0.432 ± 0.053
16,V63W,-0.774 ± 0.07
17,V63Y,-0.798 ± 0.082
18,V64A,-0.03 ± 0.044
19,V64C,0.032 ± 0.07
20,V64D,-0.057 ± 0.072
21,V64E,-0.003 ± 0.056
22,V64F,0.011 ± 0.046
23,V64G,-0.042 ± 0.035
24,V64H,-0.057 ± 0.099

row,Variant,abundance fitness
1,V64K,-0.029 ± 0.068
2,V64L,-0.015 ± 0.038
3,V64M,-0.064 ± 0.066
4,V64N,-0.02 ± 0.087
5,V64P,-0.731 ± 0.089
6,V64Q,0.032 ± 0.088
7,V64R,-0.003 ± 0.035
8,V64S,-0.019 ± 0.04
9,V64T,-0.012 ± 0.067
10,V64W,-0.042 ± 0.053
11,V64Y,-0.054 ± 0.059
12,K65A,0.002 ± 0.051
13,K65C,-0.035 ± 0.049
14,K65D,-0.019 ± 0.082
15,K65E,-0.03 ± 0.084
16,K65F,-0.098 ± 0.05
17,K65G,0.023 ± 0.074
18,K65H,0.014 ± 0.06
19,K65I,0.04 ± 0.076
20,K65L,-0.052 ± 0.037
21,K65M,-0.078 ± 0.048
22,K65N,-0.051 ± 0.057
23,K65P,0.025 ± 0.064
